Results on one protein are retold here after FireProtDB (doi:10.1093/protein/gzi067).

For this data set the following is noted: Bos taurus, pH 7, 25 °C, CD, MOPS 30 mM, reversible: yes (partial), whole UniProt chain shown.

Several values for one entry are separate records, joined by “and”; a condition that tells them apart may be missing. Identical values can stand only once.

B1: Cytochrome b5 wild type, P00171 (protein)
chain: MAEESSKAVKYYTLEEIQKHNNSKSTWLILHYKVYDLTKFLEEHPGGEEVLREQAGGDATENFEDVGHSTDARELSKTFIIGELHPDDRSKITKPSESIITTIDSNPSWWTNWLIPAISALFVALIYHLYTSEN
For the protein B1, under “GdnHCl”, the “denaturant midpoint (higher = more stable)” value turned out to be 1.27 M and the unfolding free energy is 3.2 kcal/mol. Also, the “denaturant midpoint (higher = more stable)” value (GdnSCN) was 1.52 M and 2.04 M.
